Assay: yeast display, Sf9 membrane polyspecificity reagent, FACS + sequencing; frameworks hold sequencing errors
How it was run: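 Using colony PCR, genes from sorted yeast display clones were amplified, then sequenced on MiSeq at 2 × 250 and filtered by CDR length. The clones had been stained with 10% biotinylated, detergent-solubilized Sf9 membrane reagent for 1 hour at 4 °C and sorted by FACS into low and high (top ~1%) gates on anti-HA and streptavidin fluorescence. Polyreactivity labels come from the gate of origin.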

| Sequence | polyreactivity (PSR sort gate) |
| --- | --- |
| QVQLVESGGGLVQAGGSLRLSCAASGRIFLGNAMGWYRQAPGKERELVAAIDASGGSTYYADSVKGRFTISRDNAKNTVYLQMNSLKPVDTAVYYCNAEPRYYSGGHGYDYWGQGTQVTVSS | low polyreactivity |
| QVQLVESGGGLVQAGGSLRLSCAASGRIFLGNVMGWYRQAPGKERELVAAISKSGGTTYYADSVKGRFTISRDNAKNTVYLQMNSLKPEDTAVYYCAAYGSWRTYHYYYWGQGTQVTVSS | high polyreactivity |
| QVQLVESGGGLVQAGGSLRLSCAASGRIFLGNVMGWYRQAPGKERELVAAISSGGSTNYADSVKGRFTISRDNAKNTVYLQMNSLIPEDTAVYYCAAYFVRDWKLYYYWGQGTQVTVSS | low polyreactivity |
| QVQLVESGGGLVQAGGSLRLSCAASGRIFLGYAKGWYRQAPGKERELVAAINRSGSSTYYADSVKGRFTISRDIAKNTVYLQMNSLKPEHSAVYYCNARSGNRYGPRYDYWVQGTQVTVSS | high polyreactivity |
| QVQLVESGGGLVQAGGSLRLSCAASGRIFLGYAMGWYRQAPGKERELVAAISRSGGRTYYADSVKGRFTISRDNAKNTVYLQMNRLKPEDTAVYYCAARALYPLGYDYWGQGTQVTVSS | high polyreactivity |
| QVQLVESGGGLVQAGGSLRLSCAASGRIFLINAMGWSRQAPGKERELDATISRSGASTDYADSVKGRFTISRDNAKNTVYLQMNSLKPEDTAVYYCNAKVYKRRVVPYDYWGQGTQVTVSS | high polyreactivity |
| QVQLVESGGGLVQAGGSLRLSCAASGRIFLKNAMGWYRQAPGKERELVAVISRGGSTYYADSVKGRFTISRDNAKNTVYLQMNSLKPEDTAVYYCAAPYNVIFGGLDYWGQGTQVTVSS | high polyreactivity |
| QVQLVESGGGLVQAGGSLRLSCAASGRIFLLNAMGWSRQAPGKERELVAAIDIIGGSTYYADSVKGRFTISRDNAKNTVYLQMNSLKPEDTAVFYCAAEADFWRFVEYDYWGQGTQVTVSS | low polyreactivity |
| QVQLVESGGGLVQAGGSLRLSCAASGRIFLLNAMGWYRQAPGKERELVARISSGRTYYADSVKGRFTISRDNAKNTVYLQMNSLKPEDTAVYYCNATVSSSKYRYFYVNPYDYWGQGTQVTVSS | low polyreactivity |
| QVQLVESGGGLVQAGGSLRLSCAASGRIFLPNAMGWYRQAPGKEREFVASISWSGGSTYYADSVKGRFTISRDNAKNTVYLQMNSLNPEDTAVYYCAAQSPAYYSKSYWGQGTQVTVSS | low polyreactivity |
| QVQLVESGGGLVQAGGSLRLSCAASGRIFLPYAMGWYRHAPGKERELVAAISRTGDRTYYADSVKGRFTISRDNAKNTVYLHMNSLKPEDTAVYYCNTSLPPTVIRYHLRYPRYDHWGQGTQVTVSS | low polyreactivity |
| QVQLVESGGGLVQAGGSLRLSCAASGRIFLRNAMGWYRQAPGKERELVATITSRGGSTYYADAVKGRFTISRDNAKNTVYLQMNSLKPVDTEVYDCAADPRRYRGFGYVYGGFYYWGQGTQVTVSS | low polyreactivity |
| QVQLVESGGGLVQAGGSLRLSCAASGRIFLRNDMGWYRQAPGKERELVAGISSDGSTYYADSVKGRFTISRDNAKNTVYLQMNSLKPEDTAVDYCARYGTDHRLGYGYWGQGTQVTVSS | low polyreactivity |
| QVQLVESGGGLVQAGGSLRLSCAASGRIFLSNALGWYSQAPGKERELVAALSWTGGSTYYADSVTGRFTISRDNAKNTVYLQMNSLKPEDTAVYYCAASTVGQTYSYYVDTYDYWGQGTQVTVSS | low polyreactivity |
| QVQLVESGGGLVQAGGSLRLSCAASGRIFLVYVMGWYRQAPGKERELVADITFSGGSTYYADSVKGRFTISRDNAKNTVYLQMNSLKPEDTAVYYCAARKPRSGGPFDYWGQGTQVTVSS | high polyreactivity |
| QVQLVESGGGLVQAGGSLRLSCAASGRIFLWYAMGWYRQAPGKERELVAAISSNGGSTRYADSVKGRFTISRDNAKNTVYLQMNSLKPVDNAVYYCNADVHWNRYPYGGNGYGYWGQGTQVTVSS | low polyreactivity |

| Sequence | polyreactivity (PSR sort gate) |
| --- | --- |
| QVQLVESGGGLVQAGGSLRLSCAASGRIFLWYAMGWYRQAPGKERELVAANSSNGGSTRYADSVKGRFTISRDNAKNTVYLQMNSLKPEDTAVYYCNADVHWNRYPYGGNGYGYWGQGTQVTVSS | low polyreactivity |
| QVQLVESGGGLVQAGGSLRLSCAASGRIFLWYTMGWYRQAPGKERELVASITRGGTTNYADSVKGRFTISRDNAKNTVYLQMNSLKPEDTAVYYFNVAYTWCQSTTSWYDIHYYWGQGSQVTVSS | high polyreactivity |
| QVQLVESGGGLVQAGGSLRLSCAASGRIFLYNAMGWYRQAPGKERELVAAISYNSGRTYYADSVKGRFTISRDNAKNTVYLQMNSLKPEDTAVYYCAAVSYPAVYGFDYWGQVTQVTVSS | high polyreactivity |
| QVQLVESGGGLVQAGGSLRLSCAASGRIFLYYAMGWYRQAPGKERELVAAIDSSGGNTNYADSVKGRFTISRDNAKNTVYFQMNSLKPEDTAVYYCAADFYVSADRWPNYDYWGQGTQVTVSS | low polyreactivity |
| QVQLVESGGGLVQAGGSLRLSCAASGRIFLYYAMGWYRQAPGKERELVAAITSDGSTNYADSVKGRFTISRDNAKNTVYLQMNSLKPEDTAVYYCARRIQTYHYHYDYWGQGTQVTVSS | low polyreactivity |
| QVQLVESGGGLVQAGGSLRLSCAASGRIFLYYTMGWYRQAPGKERELVAAITRSGGSTYYADSVKGRFTISRDNAKNTVYLQMISLKPEDTAVYYGADRYWERYRAFNYWGQGTQVTVSS | high polyreactivity |
| QVQLVESGGGLVQAGGSLRLSCAASGRIFNANAKGWYRQAPWKERELVAAITYSGGSTYYADSVKGRFTISRDNAKNTVYLQKNSLKPEDTAVYYCNVDYAGPYDYWGQGTQVTVSS | low polyreactivity |
| QVQLVESGGGLVQAGGSLRLSCAASGRIFNDYAMGWYRQAPGKERELVAVIRRSGVSTYYADSVKGRFTISRDNAKNTVYLQMNSLKPEDTAVYYCAADIRSNRLYDGGYWGQGTQVTVSS | low polyreactivity |
| QVQLVESGGGLVQAGGSLRLSCAASGRIFNFYAMGWYRQAPGKERELVASITSDGSTKYADSVKGRFTISRDNAKNTVYLKMNSLKPEDTAVFYCATDTWGSYYDDDDYWGQGTQVTVSS | high polyreactivity |
| QVQLVESGGGLVQAGGSLRLSCAASGRIFNGNAMVWYRQAPGKERELVASINVRGGRTYYADSVKGRFTISRDNAKNTVYLQMNSLKPEDTAVYYWYADYAWYQRKSTVDYDYWGQVTQVTVSS | low polyreactivity |
| QVQLVESGGGLVQAGGSLRLSCAASGRIFNGNDMGWYRQAPGKERELVAAISYSGGSTYYADSVKGRFTISRDNAKNTVYLQMNSLKPEDTAVYYCAALTIRVGSLGRDYWVQGTQVTVSS | low polyreactivity |
| QVQLVESGGGLVQAGGSLRLSCAASGRIFNLYAMGWYRPAPGKESELVAAISGSGGRTSYADSVKGRFTISRDNAKNTVYLQMNSLKPEDTAVYYCAADYSFYTSFRYDYWGQGTQVTVSS | low polyreactivity |
| QVQLVESGGGLVQAGGSLRLSCAASGRIFNPYAMGWYRQAPGKEREFVAAIRWSSGSTSYADSVKGRFTISRDNAKNTVYLQMNSLKPEDTAVYYCNTRSHSYYTLWGASRPRFDYWGQGTQVTVSS | high polyreactivity |
| QVQLVESGGGLVQAGGSLRLSCAASGRIFNQYAMGWYIQAPGKERELVAAISRRGGSTYYADSVKGRFTISRDNAKNTVYLQMNSLKPEDTAVYYCAAVGGYASYFHLYYYWGQGTQVTVSS | high polyreactivity |
| QVQLVESGGGLVQAGGSLRLSCAASGRIFNRNAMGWYRQAPGKERELVAAISRSGDNTYYADSVKGRFTISRDNAKNTVYLQMNSLKPEDTAVYYCAKDGSLDAQSYDYDYWGQGTQVTVSS | low polyreactivity |
